Experimental data published in patent publication US10005846.

Tests used:
[1] = molecular target: human transglutaminase type 2 (TG2) (human) (UniProt P21980)
[2] = molecular target: cynomolgus monkey TG2 (cynomolgus monkey); assay: ELISA on immobilised cynomolgus monkey TG2; r2 0.9586; EC50 95% confidence range 0.09303 to 0.4223 [panel A]
[3] = molecular target: cynomolgus monkey TG2 (cynomolgus monkey); assay: ELISA on immobilised cynomolgus monkey TG2; r2 0.9994; EC50 95% confidence range 0.3762 to 0.4603 [panel A]
[4] = molecular target: cynomolgus monkey TG2 (cynomolgus monkey)
[5] = molecular target: human transglutaminase type 2 (TG2) (human) (UniProt P21980); assay: ELISA on immobilised human TG2; r2 0.9588; EC50 95% confidence range 0.06801 to 0.2396 [panel A]
[6] = molecular target: human transglutaminase type 2 (TG2) (human) (UniProt P21980); assay: ELISA on immobilised human TG2; r2 0.9991; EC50 95% confidence range 0.3291 to 0.4396 [panel A]

Chain of cynomolgus monkey TG2 (cynomolgus monkey) (chain, as listed by the source): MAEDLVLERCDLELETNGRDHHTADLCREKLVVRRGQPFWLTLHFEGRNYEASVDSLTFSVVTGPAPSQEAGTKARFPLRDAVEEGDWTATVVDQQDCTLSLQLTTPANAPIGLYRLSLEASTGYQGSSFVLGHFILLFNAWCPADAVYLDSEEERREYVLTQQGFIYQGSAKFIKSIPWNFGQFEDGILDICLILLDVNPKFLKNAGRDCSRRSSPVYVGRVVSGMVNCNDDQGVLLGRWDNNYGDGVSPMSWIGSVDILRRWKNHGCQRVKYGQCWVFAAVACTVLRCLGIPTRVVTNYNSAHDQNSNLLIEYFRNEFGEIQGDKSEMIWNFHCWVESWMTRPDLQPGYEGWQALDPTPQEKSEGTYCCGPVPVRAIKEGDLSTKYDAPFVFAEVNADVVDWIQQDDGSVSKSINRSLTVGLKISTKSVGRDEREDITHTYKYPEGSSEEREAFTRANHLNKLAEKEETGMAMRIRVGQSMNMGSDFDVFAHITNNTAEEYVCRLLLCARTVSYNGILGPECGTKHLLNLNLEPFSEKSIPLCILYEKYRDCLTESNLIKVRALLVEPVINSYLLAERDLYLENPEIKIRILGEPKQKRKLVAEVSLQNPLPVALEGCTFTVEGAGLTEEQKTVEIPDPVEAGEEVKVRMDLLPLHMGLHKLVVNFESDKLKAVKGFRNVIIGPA
Chain of human transglutaminase type 2 (TG2) (human) (P21980 whole entry): as the sequence (chain, as listed by the source) above, with D4E, R157Q, S177N, S413H, T421I, H528Y, I542V counted along it

IC50 of enzymatic inhibition, dansylated lysine incorporation into N,N-dimethylated casein [continued), panel F] [1]: > 100 nM
EC50 [2]: 0.198 nM
EC50 [3]: 0.416 nM
IC50 of enzymatic inhibition, dansylated lysine incorporation into N,N-dimethylated casein [panel B] [4]: > 100 nM
EC50 [5]: 0.128 nM
EC50 [6]: 0.38 nM
Substance: CUB7402 commercial anti-TG2 antibody
